According to US20070065446, “Anti-bambi antibody and diagnostic or remedy for colon cancer and liver cancer” (SCIMEDIA LTD., published 2007):

B1: TBE1 mutant (dsDNA)
DNA 1: GCTGCAGAGGATTGATTAGCGGTAG
DNA 2: CTACCGCTAATCAATCCTCTGCAGC
B2: TBE3 mutant (dsDNA)
DNA 1: CTCTAAGTGTAGTTATATCTCTGAATG
DNA 2: CATTCAGAGATATAACTACACTTAGAG
B3: TBE5 mutant (dsDNA)
DNA 1: CTAAAAGTTCATGCAGTTAAATTTGGG
DNA 2: CCCAAATTTAACTGCATGAACTTTTAG
B4: TBE2 mutant (dsDNA)
DNA 1: CTCTGTGTCTAGTTAAATGTATCTCTG
DNA 2: CAGAGATACATTTAACTAGACACAGAG
B5: TBE4 mutant (dsDNA)
DNA 1: CTGGAAATATAGAAAGCGGGCAGAAC
DNA 2: GTTCTGCCCGCTTTCTATATTTCCAG
B6: TBE4 (dsDNA)
DNA 1: CTGGAAATATCAAAGGCGGGCAGAAC
DNA 2: GTTCTGCCCGCCTTTGATATTTCCAG
B7: TBE3 (dsDNA)
DNA 1: CTCTAAGTGTCTTTGTATCTCTGAATG
DNA 2: CATTCAGAGATACAAAGACACTTAGAG
B8: TBE1 (dsDNA)
DNA 1: GCTGCAGAGGCTTTGTTAGCGGTAG
DNA 2: CTACCGCTAACAAAGCCTCTGCAGC
B9: TBE2 (dsDNA)
DNA 1: CTCTGTGTCTCTTTGAATGTATCTCTG
DNA 2: CAGAGATACATTCAAAGAGACACAGAG
B10: TBE5 (dsDNA)
DNA 1: CTAAAAGTTCATGCCTTTGAATTTGGG
DNA 2: CCCAAATTCAAAGGCATGAACTTTTAG

These binders were tested against T1, TCF4 (TCF7L2) residues 265-496, GST fusion (Homo sapiens, UniProt Q9NQB0-8 Q9NQB0-8:265-496) (assay: competition; mutant unlabeled competitor does not compete in EMSA). Settings: tags: N-terminal GST (pGEX-5X-1), E. coli DH5alpha.
T1 sequence (Q9NQB0 288-519, one chain of several): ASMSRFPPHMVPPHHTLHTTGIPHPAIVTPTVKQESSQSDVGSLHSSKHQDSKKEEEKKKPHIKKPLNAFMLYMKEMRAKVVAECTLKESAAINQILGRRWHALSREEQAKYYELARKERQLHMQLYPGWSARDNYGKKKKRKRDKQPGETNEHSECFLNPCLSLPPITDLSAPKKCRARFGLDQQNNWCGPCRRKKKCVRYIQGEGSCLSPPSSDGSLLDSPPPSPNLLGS
From the text: (§1) Five TCF-4 binding sequences on intron 1 were synthesized (TBE 1-5) and radioactively labeled, and shift assay was used to investigate whether they bound with GST-TCF.
The oligonucleotide used in preparing the mutant hBAMBI-luciferase construct was used as the mutant competitive molecule.

Binder | binding result
B1 | no binding
B2 | no binding
B3 | no binding
B4 | no binding
B5 | no binding

The binders below were run against T1, TCF4 (TCF7L2) residues 265-496, GST … (assay: EMSA; competed by excess unlabeled TBE). Settings: tags: N-terminal GST (pGEX-5X-1), E. coli DH5alpha; label: radioactive.
From the text: as §1

Binder | binding result
B6 | binds
B7 | binds
B8 | binds
B9 | binds
B10 | binds

What follows are binders tested against GST (UniProt P08515 P08515:1-218) (assay: EMSA; GST control). Settings: tags: pGEX-5X-1 (Pharmacia), E. coli DH5alpha; label: radioactive.
Sequence of GST (P08515 whole entry, one chain of several): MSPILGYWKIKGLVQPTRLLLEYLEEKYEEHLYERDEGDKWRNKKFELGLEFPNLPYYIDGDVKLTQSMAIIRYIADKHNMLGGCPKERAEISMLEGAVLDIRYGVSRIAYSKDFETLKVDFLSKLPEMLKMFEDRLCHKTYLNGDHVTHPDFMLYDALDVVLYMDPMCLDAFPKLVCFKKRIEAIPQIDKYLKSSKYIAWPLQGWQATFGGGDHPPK
From the text: as §1

Binder | binding result
B6 | no binding
B7 | no binding
B8 | no binding
B9 | no binding
B10 | no binding
